Experimental data reported in patent US20030186877A1 (BRIGHAM AND WOMEN S HOSPITAL, published 2003).
Values belong to the binder of their own block, whether it stands above or below them. Square brackets hold non-standard residues; d marks the D form. * marks the point of attachment. dBpa = N[C@H](Cc1ccc(C(=O)c2ccccc2)cc1)C(=O)O; Boc = CC(C)(C)OC(=O)*; Aib = CC(C)(N)C(=O)O

Key:
γ-secretase [1] = assay: cell-based or functional assay
γ-secretase [2] = assay: cell-based or functional assay; remark: listed apart in the source

B1: Boc-Aib-Ile-Ala-Thr(OBz)-Aib-Ile-Val-Aib-OMe (peptide)
peptide: Boc-[Aib]IA[Thr(OBz)][Aib]IV[Aib]-OMe
IC50: concentration of compound that reduced production of total Aβ by 50% in a cell-based assay using CHO cells stably transfected with human APP (γ-secretase [1]): 10 µM

B3: Boc-D-Val-Gly-Aib-D-Val-D-Val-D-BPA-Aib-D-Thr(OBz)-D-Val-Aib-OMe (peptide)
peptide: Boc-[dV]G[Aib][dV][dV][dBpa][Aib][dThr(OBz)][dV][Aib]-OMe
IC50 in the same cell-based assay using CHO cells stably transfected with human APP (production of total Aβ) (γ-secretase [2]): 0.1 µM

B5: Boc-Aib-Val-Val-Ile-Aib-Thr(OBz)-Val-Aib-OMe (peptide)
peptide: Boc-[Aib]VVI[Aib][Thr(OBz)]V[Aib]-OMe
IC50: concentration of compound that reduced production of total Aβ by 50% in a cell-based assay using CHO cells stably transfected with human APP (γ-secretase [1]): 6 µM

B6: Boc-Ala-Thr(OBz)-Aib-Ile-Val-Aib-OMe (peptide)
peptide: Boc-A[Thr(OBz)][Aib]IV[Aib]-OMe
IC50: concentration of compound that reduced production of total Aβ by 50% in a cell-based assay using CHO cells stably transfected with human APP (γ-secretase [1]): 25 µM

B8: Boc-Gly-Aib-Val-Val-Ile-Aib-Thr(OBz)-Val-Aib-OMe (peptide)
peptide: Boc-G[Aib]VVI[Aib][Thr(OBz)]V[Aib]-OMe
IC50: concentration of compound that reduced production of total Aβ by 50% in a cell-based assay using CHO cells stably transfected with human APP (γ-secretase [1]): 3 µM

B9: Boc-Aib-Ala-Leu-Aib-Ala-Leu-Aib-Ala-Leu-Aib-O-methylester (peptide)
peptide: Boc-[Aib]AL[Aib]AL[Aib]AL[Aib]-OMe
SMILES: COC(=O)C(C)(C)NC(=O)[C@H](CC(C)C)NC(=O)[C@H](C)NC(=O)C(C)(C)NC(=O)[C@H](CC(C)C)NC(=O)[C@H](C)NC(=O)C(C)(C)NC(=O)[C@H](CC(C)C)NC(=O)[C@H](C)NC(=O)C(C)(C)NC(=O)OC(C)(C)C
IC50 of blocking Aβ production in APP-transfected cells (γ-secretase [2]): 2 µM

B10: Boc-Gly-Val-Aib-Ile-Ala-Thr(OBz)-Aib-Ile-Val-Aib-OMe (peptide)
peptide: Boc-GV[Aib]IA[Thr(OBz)][Aib]IV[Aib]-OMe
IC50: concentration of compound that reduced production of total Aβ by 50% in a cell-based assay using CHO cells stably transfected with human APP (γ-secretase [1]): 5 µM

Second part, the binder after the results:

IC50: concentration of compound that reduced production of total Aβ by 50% in a cell-based assay using CHO cells stably transfected with human APP (γ-secretase [1]): 15 µM
B2: Boc-Ile-Ala-Thr(OBz)-Aib-Ile-Val-Aib-OMe (peptide)
peptide: Boc-IA[Thr(OBz)][Aib]IV[Aib]-OMe

IC50: concentration of compound that reduced production of total Aβ by 50% in a cell-based assay using CHO cells stably transfected with human APP (γ-secretase [1]): 6 µM
B4: Boc-Val-Val-Ile-Aib-Thr(OBz)-Val-Aib-OMe (peptide)
peptide: Boc-VVI[Aib][Thr(OBz)]V[Aib]-OMe

IC50: concentration of compound that reduced production of total Aβ by 50% in a cell-based assay using CHO cells stably transfected with human APP (γ-secretase [1]): 2 µM
B7: Boc-Val-Aib-Ile-Ala-Thr(OBz)-Aib-Ile-Val-Aib-OMe (peptide)
peptide: Boc-V[Aib]IA[Thr(OBz)][Aib]IV[Aib]-OMe

IC50: concentration of compound that reduced production of total Aβ by 50% in a cell-based assay using CHO cells stably transfected with human APP (γ-secretase [1]): 12 µM
B11: Boc-Val-Ile-Aib-Thr(OBz)-Val-Aib-OMe (peptide)
peptide: Boc-VI[Aib][Thr(OBz)]V[Aib]-OMe

IC50: concentration of compound that reduced production of total Aβ by 50% in a cell-based assay using CHO cells stably transfected with human APP (γ-secretase [1]): 3 µM
B12: Boc-Val-Gly-Aib-Val-Val-Ile-Aib-Thr(OBz)-Val-Aib-OMe (peptide)
peptide: Boc-VG[Aib]VVI[Aib][Thr(OBz)]V[Aib]-OMe
